This is an account of results in US20050032194.

In data set [1] the target is T1, RsaA, wild-type S-layer protein monomer of C. crescentus.
T1 chain: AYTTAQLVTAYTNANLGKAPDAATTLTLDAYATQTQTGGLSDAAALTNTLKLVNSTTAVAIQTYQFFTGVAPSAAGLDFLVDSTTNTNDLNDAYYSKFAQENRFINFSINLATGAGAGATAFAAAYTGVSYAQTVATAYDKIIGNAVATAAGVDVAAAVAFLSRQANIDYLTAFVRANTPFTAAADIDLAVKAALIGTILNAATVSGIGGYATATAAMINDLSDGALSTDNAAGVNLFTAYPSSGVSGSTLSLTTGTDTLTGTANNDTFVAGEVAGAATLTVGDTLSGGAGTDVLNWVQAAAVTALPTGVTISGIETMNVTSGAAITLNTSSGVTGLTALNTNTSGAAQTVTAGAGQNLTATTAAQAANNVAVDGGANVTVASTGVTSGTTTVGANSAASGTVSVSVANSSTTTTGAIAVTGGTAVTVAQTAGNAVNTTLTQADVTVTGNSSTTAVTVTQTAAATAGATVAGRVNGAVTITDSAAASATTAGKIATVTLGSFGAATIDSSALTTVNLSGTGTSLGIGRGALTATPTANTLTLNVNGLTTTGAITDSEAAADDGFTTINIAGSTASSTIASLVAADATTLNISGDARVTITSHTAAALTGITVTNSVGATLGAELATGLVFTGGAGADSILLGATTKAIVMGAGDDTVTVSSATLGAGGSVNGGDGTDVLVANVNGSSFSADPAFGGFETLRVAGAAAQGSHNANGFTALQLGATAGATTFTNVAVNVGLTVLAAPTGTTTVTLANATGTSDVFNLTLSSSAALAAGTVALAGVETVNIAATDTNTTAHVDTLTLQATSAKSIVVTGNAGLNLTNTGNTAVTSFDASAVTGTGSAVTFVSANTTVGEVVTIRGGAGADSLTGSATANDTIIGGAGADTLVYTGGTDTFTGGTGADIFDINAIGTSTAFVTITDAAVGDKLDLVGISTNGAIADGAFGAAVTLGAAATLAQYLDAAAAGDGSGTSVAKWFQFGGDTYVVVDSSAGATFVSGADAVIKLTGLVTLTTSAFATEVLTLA

Data set [2] concerns the target RsaA(723/VP2C), RsaA with a 112 amino acid segment of the VP2 surface glycoprotein of infectious pancreatic necrosis virus inserted at amino acid 723.
The target in data set [3] is RsaA(723/3XPilin12), RsaA with a 3X tandemly repeated P. aeruginosa pilin epitope inserted at amino acid 723.
The target in data set [4] is T2, RsaA(485/IHNVG20), full-length RsaA hybrid protein carrying the 20 amino acid IHNV-G peptide at amino acid 485.
T2 chain: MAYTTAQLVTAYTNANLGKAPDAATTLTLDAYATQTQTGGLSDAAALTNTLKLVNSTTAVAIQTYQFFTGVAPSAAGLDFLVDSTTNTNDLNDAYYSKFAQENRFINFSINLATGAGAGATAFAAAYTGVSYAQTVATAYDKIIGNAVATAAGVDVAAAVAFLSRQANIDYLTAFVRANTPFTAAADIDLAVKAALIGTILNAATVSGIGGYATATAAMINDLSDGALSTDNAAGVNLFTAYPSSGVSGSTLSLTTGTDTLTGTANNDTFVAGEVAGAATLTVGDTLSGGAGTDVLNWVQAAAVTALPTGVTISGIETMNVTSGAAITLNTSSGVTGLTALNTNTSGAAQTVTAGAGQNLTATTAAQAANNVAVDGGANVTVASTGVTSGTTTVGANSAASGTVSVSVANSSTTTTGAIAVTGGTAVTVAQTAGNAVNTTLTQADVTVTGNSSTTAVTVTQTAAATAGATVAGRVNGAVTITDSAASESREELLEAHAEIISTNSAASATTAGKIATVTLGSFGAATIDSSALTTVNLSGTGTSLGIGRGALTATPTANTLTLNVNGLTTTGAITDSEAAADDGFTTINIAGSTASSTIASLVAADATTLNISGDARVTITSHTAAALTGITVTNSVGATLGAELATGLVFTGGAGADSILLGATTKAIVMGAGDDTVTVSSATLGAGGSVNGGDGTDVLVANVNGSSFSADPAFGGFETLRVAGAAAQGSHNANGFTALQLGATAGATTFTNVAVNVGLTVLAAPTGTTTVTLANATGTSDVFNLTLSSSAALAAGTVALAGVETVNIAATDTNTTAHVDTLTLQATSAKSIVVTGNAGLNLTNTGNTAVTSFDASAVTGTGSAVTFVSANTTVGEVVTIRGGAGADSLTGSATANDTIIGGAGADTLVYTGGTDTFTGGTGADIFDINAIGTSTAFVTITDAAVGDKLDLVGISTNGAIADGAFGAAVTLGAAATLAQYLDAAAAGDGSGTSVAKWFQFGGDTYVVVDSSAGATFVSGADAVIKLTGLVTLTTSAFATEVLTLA

B1: Sap (S-layer associated protease), native Caulobacter crescentus metalloprotease (protein)
chain: MCSQCERYGLNLHGDDVAPAVSGGEGPYAFVDADSRVGTVDGKKSLTVPEAALQLLRSEPGWSNQFLVPATVTYAFRATAPASMPSDTGGFSQFNAAQILQAEKALQAWSDVANITFVRVGQGTSGEAAYSDNASILFANFSTGSEGSAGFAYYPGNPAASSRSGDVWIKSTAGYNTNPTGSNYGGMVLVHELGHAIGIAHPSEYNASADDTLTYAVNATYYQDSRQYTVMSYFSEANTGGSFGGAYASSPLLDDIAAAQLAYGANMTTRTGDTVYGFNSTAGREWFAATSSSTRLVFAVWDAGGVDTLDFSGYRVAQTIDLRAGYFSSVGGLKGNVTIAMNAVIENAIGGSAADTINGNAVDNRLTGGAGADILDGGRGVDTAVFSGAYGNYTLTAATNGAWSVLDRVGTDATDTLANIEFLAFTDRTVTLVDSRVATAISNILRLQTFSASAEPLSKSLAASMAAGASHSDAIGQVSKTALSTSGVAVLAYQFFTGKTPTAAGMDYLVNPDGVNANNLNSAYYQSFNLENRYINFAVNLGKIGEGATKFLADYGGLSLFDATRKAYATIFGLTPTDDKVRALIDGRTDYFAAYGQDGPNGQGTKAAMVGWLMAEAGKADIGVYAKSAGAFFADQATKNVYGVDLIGVYAKPEYNLI
Consider B1, for which, in data set [1], the “proteolytic cleavage (SDS-PAGE of low-pH extracts from Sap+ JS4000)” value was “Native RsaA (98 kDa) was not subjected to cleavage”. For the same protein, the “degradation of the hybrid protein in Sap+ JS4000 against Sap- JS4015 (SDS-PAGE of low-pH extracts)” value in data set [2] and in data set [3] was “In all instances significant degradation of the hybrid full-length rsaA protein occurred in a wild-type host (JS4000) while none was detected in the Sap^- JS4015 strain” in each case. Also, the “proteolytic phenotype (cleavage of the hybrid protein; SDS-PAGE of low-pH extracts, complementation of Sap- JS4015 with the sap gene)” value in data set [4] is “When pBBR1MCS:Kmsap was introduced into JS4015, the proteolytic phenotype was restored”.
